For 6 molecules, Kd results are on record in patent EP4600270A1 (ImnoTech GmbH, dated 2025).

B1: SEQ ID NO 4 (VHH)
VHH: QVQLQESGGGLVQAGDSLRLSCAASGLTVSSYGMGWFRQAPGKEREFVVDISRGGGSTSYADSVKGRFTIARDNAKNTLYLQMNSLKPEDTAVYSCAARKYAHYEYWGQGTQVTVSS
notes: Single domain antibody against human CD7; also called anti-CD7 sdAb
B2: SEQ ID NO 8 (VHH)
VHH: QVQLQESGGGLVQTGDSLRLSCAASGLTVSSYGMGWFRQAPGKEREFVADISRGGGSTLYADSVKGRFTISRDNLKNTLYLQMNSLKPEDTAVYSCAARKYAEWNYWGQGTQVTVSS
notes: as for B1
B3: SEQ ID NO 7 (VHH)
VHH: QVQLQESGGGLVQAGDSLRLSCAASGLTVSMYGMGWFRQAPGKEREFVADISRGGGSTSYTDSVKGRFTISRDNAKNTLYLQMNSLKPEDTAVYSCAARKYAHYEYRGQGTQVTVSS
notes: as for B1
B4: SEQ ID NO 9 (VHH)
VHH: QVQLQESGGGLVQAGDSLRLSCAASGLTVSSYGMGWFRQAPGKEREFVADISRGGGSTLYADSVKGRFTISRDNGKNTLYLQINSLKPEDTAVYSCAARKYAEWDYWGQGTQVTVSS
notes: as for B1
B5: SEQ ID NO 13 (VHH)
VHH: QVQLQESGGGLVQSGGSLRLSCAASRRIFEINVMGWYRQAPEKQRELVGTITSFGGTNYADSVKGRFTISADYAKNTMYLQMNSLNPEDTAVYYCNAHYFSNDYWGQGTQVTVSS
notes: as for B1
B6: SEQ ID NO 2 (VHH)
VHH: QVQLQESGGGLVQAGGSLRLSCAASGRTFSDYLMGWFRQTPGKEREFVAAIYWNAGSTYYADSVKGRFTISRDNTKNTMYLQMNSLKPEDTAVYYCAAGQRGLAYARTYDYDYWGQGTQVTVSS
notes: as for B1

The experiment deals with T1, human CD7 (cluster of differentiation 7) (human, UniProt P09564 26-240).
T1 construct: also called CD7 target antigen; CD7 surface marker
T1 sequence: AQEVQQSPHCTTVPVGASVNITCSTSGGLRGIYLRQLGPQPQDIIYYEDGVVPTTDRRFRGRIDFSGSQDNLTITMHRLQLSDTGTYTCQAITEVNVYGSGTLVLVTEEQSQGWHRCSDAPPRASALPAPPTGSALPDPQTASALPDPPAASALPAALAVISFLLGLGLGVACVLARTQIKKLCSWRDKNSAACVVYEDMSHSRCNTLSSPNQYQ
The experiment in a line: flow cytometry titration on human CD8+ T cells, one-site specific binding fit.
A word on the Kd: it is the equilibrium constant for the complex coming apart. In turn, B1 gave an equilibrium dissociation constant (Kd) of 5.66 nM. This lies in the single-digit nanomolar range. The figure for B2 is 8.16 nM; for B3 it is 11 nM. The figure for B4 is 4.04 nM; for B5 it is 3.9 nM; for B6 it is 6.34 nM.
